pKd: −log10 of the molar value.
System: His-PTB (polypyrimidine tract-binding protein, pETPTB), P26599-1
Assay: EMSA

With “GGGCCAGACACUGAUUAUAUGGUUCAUAUGGGUAAUUACCUUCCCUAGGCUAAGGACUAACUGGUAUAUACCAUAAUUAAA [SHFV 3'(+)NCR RNA]” the pKd was 8.15.

Source: PMC7126611
